According to paper PMC6220978, “Induced conformational changes activate the peptidoglycan synthase PBP1B” (Molecular Microbiology, 2018):

Assays:
[1] = molecular target: T1, PBP1B (wild type, PBP1B^46-844) (E. coli, UniProt P02919 46-844); assay: cell-based or functional assay
T1 sequence (looked up): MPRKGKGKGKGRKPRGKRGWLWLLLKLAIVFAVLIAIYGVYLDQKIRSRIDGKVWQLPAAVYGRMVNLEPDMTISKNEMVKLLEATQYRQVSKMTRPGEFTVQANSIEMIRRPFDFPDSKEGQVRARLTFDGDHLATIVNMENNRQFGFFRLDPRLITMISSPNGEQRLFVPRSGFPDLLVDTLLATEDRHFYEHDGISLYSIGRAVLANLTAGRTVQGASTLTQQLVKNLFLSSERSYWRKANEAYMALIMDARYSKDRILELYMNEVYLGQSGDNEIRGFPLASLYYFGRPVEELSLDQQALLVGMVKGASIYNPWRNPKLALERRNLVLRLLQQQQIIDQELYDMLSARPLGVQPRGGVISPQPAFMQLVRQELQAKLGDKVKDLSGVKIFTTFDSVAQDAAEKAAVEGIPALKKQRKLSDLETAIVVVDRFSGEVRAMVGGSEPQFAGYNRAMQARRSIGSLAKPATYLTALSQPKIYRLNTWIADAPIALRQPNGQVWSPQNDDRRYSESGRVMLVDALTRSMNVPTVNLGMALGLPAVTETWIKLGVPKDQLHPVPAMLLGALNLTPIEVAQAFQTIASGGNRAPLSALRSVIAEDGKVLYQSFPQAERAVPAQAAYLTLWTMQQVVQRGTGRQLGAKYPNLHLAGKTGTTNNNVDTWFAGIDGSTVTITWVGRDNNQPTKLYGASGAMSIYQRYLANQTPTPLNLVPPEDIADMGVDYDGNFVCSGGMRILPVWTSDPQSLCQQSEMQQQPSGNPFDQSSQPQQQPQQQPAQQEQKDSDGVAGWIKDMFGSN

PBP1B N112G = molecular target: T2, PBP1B N112G (E. coli, UniProt P02919 46-844, N112G); assay: SPR; PBP1B versions immobilised to the chip surface; LpoB injected from 19.5 nM to 10 μM; apparent KD by non-linear regression, at least three independent experiments; details: both partners purified
T2 construct: PBP1B, E. coli, residues 46-844, made by mutagenesis of pDML924; source: E. coli BL21(DE3), purified (membrane extract, HisTrap, thrombin, HiTrap SP ion exchange)
T2 sequence (looked up): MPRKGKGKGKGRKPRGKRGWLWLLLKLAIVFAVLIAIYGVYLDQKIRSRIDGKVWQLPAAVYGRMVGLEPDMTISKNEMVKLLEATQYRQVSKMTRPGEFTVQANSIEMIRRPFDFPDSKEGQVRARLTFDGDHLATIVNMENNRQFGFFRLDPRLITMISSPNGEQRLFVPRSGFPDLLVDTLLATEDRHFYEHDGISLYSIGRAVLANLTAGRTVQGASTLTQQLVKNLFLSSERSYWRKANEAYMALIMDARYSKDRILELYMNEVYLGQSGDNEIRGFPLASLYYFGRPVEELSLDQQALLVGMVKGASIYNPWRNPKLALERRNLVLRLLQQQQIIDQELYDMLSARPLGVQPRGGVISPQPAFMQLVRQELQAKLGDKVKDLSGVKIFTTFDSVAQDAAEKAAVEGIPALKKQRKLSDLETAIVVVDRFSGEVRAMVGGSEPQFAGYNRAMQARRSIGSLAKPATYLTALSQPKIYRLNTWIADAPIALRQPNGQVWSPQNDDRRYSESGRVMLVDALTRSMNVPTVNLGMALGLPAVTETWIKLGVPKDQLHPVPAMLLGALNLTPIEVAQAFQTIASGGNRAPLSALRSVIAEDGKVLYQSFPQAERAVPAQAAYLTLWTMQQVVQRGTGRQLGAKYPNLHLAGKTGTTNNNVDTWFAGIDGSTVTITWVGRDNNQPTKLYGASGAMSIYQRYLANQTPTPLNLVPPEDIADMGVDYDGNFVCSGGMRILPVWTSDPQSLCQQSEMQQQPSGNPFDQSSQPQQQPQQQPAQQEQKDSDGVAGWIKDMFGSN

PBP1B R157A = molecular target: T3, PBP1B R157A (E. coli, UniProt P02919 46-844, R157A); assay: as above; details: both partners purified
T3 construct: PBP1B, E. coli, residues 46-844, made by mutagenesis of pDML924; source: E. coli BL21(DE3), purified (membrane extract, HisTrap, thrombin, HiTrap SP ion exchange)
T3 sequence (looked up): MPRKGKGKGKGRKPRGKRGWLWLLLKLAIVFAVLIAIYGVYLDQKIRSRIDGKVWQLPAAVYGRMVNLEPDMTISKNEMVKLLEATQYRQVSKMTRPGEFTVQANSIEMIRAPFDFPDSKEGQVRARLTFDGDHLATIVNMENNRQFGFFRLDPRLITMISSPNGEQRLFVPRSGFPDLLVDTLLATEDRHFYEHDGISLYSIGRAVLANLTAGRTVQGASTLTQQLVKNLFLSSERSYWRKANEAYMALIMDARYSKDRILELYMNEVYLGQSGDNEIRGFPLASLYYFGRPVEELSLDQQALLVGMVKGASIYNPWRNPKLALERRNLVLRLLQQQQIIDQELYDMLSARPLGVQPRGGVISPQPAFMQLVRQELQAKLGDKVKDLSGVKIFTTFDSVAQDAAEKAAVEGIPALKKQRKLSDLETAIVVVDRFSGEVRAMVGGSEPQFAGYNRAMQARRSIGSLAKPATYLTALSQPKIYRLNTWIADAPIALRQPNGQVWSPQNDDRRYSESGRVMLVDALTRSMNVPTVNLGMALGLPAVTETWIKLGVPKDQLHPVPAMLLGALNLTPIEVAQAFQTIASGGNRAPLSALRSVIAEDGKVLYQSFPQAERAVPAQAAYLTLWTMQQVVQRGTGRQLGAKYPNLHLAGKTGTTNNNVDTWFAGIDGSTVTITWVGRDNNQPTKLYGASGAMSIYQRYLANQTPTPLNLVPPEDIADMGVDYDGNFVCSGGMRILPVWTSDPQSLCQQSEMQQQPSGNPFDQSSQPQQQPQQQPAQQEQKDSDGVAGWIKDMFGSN

GTase rate of WT PBP1B with LpoB relative to the basal rate of WT PBP1B (continuous fluorescence assay, dansylated lipid II; 0.5 μM PBP1B, 2 μM LpoB) [1]: 10.2 fold | Kd (PBP1B N112G): 356 nM | Kd (PBP1B R157A): 505 nM
B1: LpoB (natural protein, E. coli)
chain: VGQREPAPVEEVKPAPEQPAEPQQPVPTVPSVPTIPQQPGPIEHEDQTAPPAPHIRHYDWNGAMQPMVSKMLGADGVTAGSVLLVDSVNNRTNGSLNAAEATETLRNALANNGKFTLVSAQQLSMAKQQLGLSPQDSLGTRSKAIGIARNVGAHYVLYSSASGNVNAPTLQMQLMLVQTGEIIWSGKGAVSQQ
notes: LpoB, E. coli; also called lipoprotein LpoB; source: E. coli BL21(DE3), purified (HisTrap, Superdex 200), as in Egan et al. 2014
